Paper PMC314469, “Protein Interaction Networks by Proteome Peptide Scanning” (PLoS Biology, 2004)

T1: amphyphisin SH3 (AMPH_HUMAN), P49418
T1 chain: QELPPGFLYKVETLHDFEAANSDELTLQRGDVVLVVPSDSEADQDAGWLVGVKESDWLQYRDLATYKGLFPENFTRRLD

B1: Q9HBF6 199-212 (peptide)
chain: LSQDLIRPIRKTGT
B2: O95985 371-384 (peptide)
chain: LAEGINRPRKGHDA
B3: P21580 199-212 (peptide)
chain: LSNILRRPIIVISD
B4: O00501 199-212 (peptide)
chain: KYSAPRRPTATGDY
B5: Q9C056 106-120 (peptide)
chain: LAELPGRPPIFWPG
B6: Q15678 740-754 (peptide)
chain: LARIPNKPPPEYPG
B7: Q9NQ53 317-330 (peptide)
chain: LAHVLRRPIVVVAD
B8: Q9NYB9 126-139 (peptide)
chain: APANLERPVRYIRK
B9: O43379 748-761 (peptide)
chain: LAQPLRRPSSVGEL
B10: Q9ULI4 1214-1227 (peptide)
chain: KVTAPRRPQRYSSG
B11: O94836 267-281 (peptide)
chain: LASRPTRPPEPRHI
B12: Q8WWL8 44-57 (peptide)
chain: LDMALRRPPRLRLS
B13: Q9P2E8 92-105 (peptide)
chain: KVFLLRRPPQAPLP
B14: O75705 229-242 (peptide)
chain: KTKTLLRPERSRFD
B15: Q9P1Y6 933-946 (peptide)
chain: LAARLRRPSPPEPW
B16: P27986 303-317 (peptide)
chain: APALPPKPPKPTTV
B17: P46013 726-739 (peptide)
chain: KVHVPARPYRVLNN
B18: P07996 308-321 (peptide)
chain: LANELRRPPLSYHN
B19: Q01970 912-926 (peptide)
chain: LDASPRRPPGPTTS
B20: Q9NPT6 50-63 (peptide)
chain: KTLRLWRPPRYPRK
B21: P12270 638-651 (peptide)
chain: LASTPKRPSTSQTV
B22: Q15413 2649-2662 (peptide)
chain: KTHPLIRPFKTLTE
B23: Q96KY5 32-45 (peptide)
chain: LAITLRRPGSELEA
B24: Q9HC16 39-53 (peptide)
chain: KTKGPSRPPLDAKI
B25: Q9UGI0 529-542 (peptide)
chain: LAHILRRPIIVYGV
B26: Q9UQ90 461-474 (peptide)
chain: LDGALMRPGRLDRH
B27: P16144 1316-1329 (peptide)
chain: LATQPKRPMSIPII
B28: Q14566 49-62 (peptide)
chain: LAEELIRPERNTLV
B29: Q96SL1 246-260 (peptide)
chain: LAYFPPRPPLPPSV
B30: O75086 179-192 (peptide)
chain: AAPLLRRPHGGAGP
B31: Q9Y2Q2 234-247 (peptide)
chain: LDNALIRPGRFDMQ
B32: P20933 176-190 (peptide)
chain: KYSGPYKPPGILKQ
B33: Q02241 662-675 (peptide)
chain: KTEKPERPSRERDR
B34: Q9C0J1 326-339 (peptide)
chain: KTFGIRRPLDPLDP
B35: Q9UFP1 189-202 (peptide)
chain: LSGLIKRPGDLPEV
B36: Q9ULH1 746-760 (peptide)
chain: LAELPQKPPPGDLP
B37: Q9C000 828-841 (peptide)
chain: LSKTLRRPRSLLET
B38: P46100 660-673 (peptide)
chain: KTTPLRRPTETNPV
B39: Q9HA29 107-120 (peptide)
chain: APEALPRPRREGEL
B40: P27539 244-257 (peptide)
chain: LSHPLARPRRDAEP
B41: Q9Y6D4 264-277 (peptide)
chain: LSYSLYRPRKYLYV
B42: P41440 199-212 (peptide)
chain: LALFLKRPKRSLFF

Columns and labels:
[1] = target: T1, amphyphisin SH3 (AMPH_HUMAN), P49418; assay: SPOT array
[2] = target: endophilin SH3 (SH3G2_HUMAN), Q99962; assay: SPOT array

| Binder | normalised SPOT signal, Boehringer light units (BLU); mean over the file's lines of this peptide [1] | normalised SPOT signal, Boehringer light units (BLU); mean over the file's lines of this peptide [2] |
| --- | --- | --- |
| B1 | 1840 | 276 |
| B2 | 99.3 | 198 |
| B3 | 26 | 84.4 |
| B4 | 46.4 | 36.9 |
| B5 | 53.5 | 98 |
| B6 | 30.4 | 20.4 |
| B7 | 37.4 | 37.7 |
| B8 | 3060 | 180 |
| B9 | 37.1 | 45.3 |
| B10 | 16200 | 5620 |
| B11 | 1090 | 22900 |
| B12 | 4180 | 1210 |
| B13 | 21 | 993 |
| B14 | 239 | 80.8 |
| B15 | 77.5 | 1180 |
| B16 | 199 | 2440 |
| B17 | 4080 | 1730 |
| B18 | 34.3 | 173 |
| B19 | 210 | 1090 |
| B20 | 3230 | 223 |
| B21 | 32 | 78 |

| Binder | normalised SPOT signal, Boehringer light units (BLU); mean over the file's lines of this peptide [1] | normalised SPOT signal, Boehringer light units (BLU); mean over the file's lines of this peptide [2] |
| --- | --- | --- |
| B22 | 87.1 | 148 |
| B23 | 16 | 27.9 |
| B24 | 29 | 2250 |
| B25 | 45.6 | 629 |
| B26 | 1540 | 1590 |
| B27 | 23.2 | 660 |
| B28 | 19.4 | -0 |
| B29 | 48.7 | 2170 |
| B30 | 25.6 | 102 |
| B31 | 240 | 80.5 |
| B32 | 39.4 | 47.7 |
| B33 | 9120 | 403 |
| B34 | 36.6 | 41.5 |
| B35 | 21.9 | 49.5 |
| B36 | 62.4 | 37.5 |
| B37 | 32.3 | 51.9 |
| B38 | 31.5 | 57.5 |
| B39 | 708 | 318 |
| B40 | 984 | 405 |
| B41 | 137 | 288 |
| B42 | 2280 | 838 |
